Test [1] has as its target Ggly receptor on IMGE-5 cells. Kind of test: cell-based or functional assay.
For test [2], the target named is T1, human CCK-2 receptor (human, UniProt P32239 1-447).
T1 sequence (looked up): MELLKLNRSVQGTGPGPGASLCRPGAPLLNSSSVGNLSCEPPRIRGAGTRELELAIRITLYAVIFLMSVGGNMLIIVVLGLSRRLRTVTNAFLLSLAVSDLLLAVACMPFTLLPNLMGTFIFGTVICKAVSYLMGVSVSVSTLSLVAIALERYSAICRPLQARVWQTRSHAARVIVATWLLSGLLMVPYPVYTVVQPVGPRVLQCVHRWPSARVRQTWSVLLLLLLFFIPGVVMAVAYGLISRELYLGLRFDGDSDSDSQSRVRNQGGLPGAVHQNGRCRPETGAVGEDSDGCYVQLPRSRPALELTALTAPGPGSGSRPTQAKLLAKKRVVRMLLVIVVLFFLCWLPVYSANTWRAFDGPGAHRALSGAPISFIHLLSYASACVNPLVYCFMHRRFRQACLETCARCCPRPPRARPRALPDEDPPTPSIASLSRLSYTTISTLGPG
Put plainly: cell-based or functional assay.

For test [3], the target named is T1, human CCK-2 receptor. Put plainly: fitted [125I]-BH-CCK8 binding without competitor, displacement curve, Jurkat cells. The protocol: (§1) Non-specific binding was evaluated with […] of unlabelled CCK₈. Incubation was stopped by adding 2 ml of ice-cold PBS containing 2% bovine serum albumin. After centrifugation, supernatants were removed and the radioactivity bound to the cell membranes was measured in a γ-counter (LKB, Wallac, Finland).
(§2) Values of the % maximum binding in the absence of competitor and of the IC₅₀ were obtained from the data presented in FIG. 21 by least squares fitting with the program Sigmaplot. Values from the indicated number of independent experiments were combined to obtain the mean values (±S.E.) presented above. Data were analyzed by one-way analysis of variance.

Test [4] concerns the target T1, human CCK-2 receptor. Put plainly: fitted [125I]-BH-CCK8 binding without competitor, displacement curve, CCK-2 receptor on transfected COS-7 cells. Here is the method: as §2
In test [5] the target is T1, human CCK-2 receptor. Put plainly: displacement of [125I]-BH-CCK8, CCK-2 receptor on transiently transfected COS-7 cells. Here is the method: as §2
Background: Displacement assays read how much labelled ligand stays bound in the presence of the test substance.

Test [6] concerns the target T1, human CCK-2 receptor. Put plainly: displacement of [125I]-BH-CCK8, Jurkat cells; reference Gamide.
The target of test [7] is T1, human CCK-2 receptor. Put plainly: single experiment of FIG. 21, displacement of [125I]-BH-CCK8, transfected COS-7 cells. An excerpt:
The lines of best fit shown in FIG. 21 were obtained by nonlinear regression to a single site model with the program Sigmaplot.

The target in test [8] is T1, human CCK-2 receptor. Put plainly: displacement of [125I]-BH-CCK8, transfected COS-7 cells; reference Gamide.
The target in test [9] is T1, human CCK-2 receptor. Kind of test: displacement of [125I]-BH-CCK8, CCK-2 receptor on Jurkat cells. Here is the method:
as §1, §2

This is an account of results in US20070031511A1 (published 2007).

[ ]: non-standard residue; d: D form. pGlu = O=C1CC[C@@H](C(=O)O)N1

With EEEEEA [hexapeptide E5A], the “ED50 (nM), proliferation of IMGE cells, thymidine uptake” value (“ED50 (nM), proliferation of IMGE cells” for short) in test [1] was determined as 0.5 nM.

B1: amidated gastrin17 (Gamide) (peptide)
peptide: XGPWLEEEEEAYGWMDF
modifications: N-terminal pyroglutamate (Z); C-terminal phenylalanine amide
notes: Synthetic peptide bought from Bachem; Also tested with 1 uM DFO or with 8 moles Bi3+ per mole; also called G17
B1: in the test with human CCK-2 receptor [2], the inositol phosphate turnover came out at 4 fold. The “% Maximum Binding” value with human CCK-2 receptor [3] was 100%; in the test with human CCK-2 receptor [4], 94.2%.

B2: GamideE7A (peptide)
peptide: [pGlu]GPWLEAEEEAYGWMDF-NH2
modifications: ends and bridges not checked
notes: Gamide mutant with Glu7 replaced by Ala; Synthesised by Auspep
For orientation: IC50 means the midpoint of a concentration-inhibition curve. Take B2: the figures for the “% Maximum Binding” value with human CCK-2 receptor [3] and in the test with human CCK-2 receptor [4] were 96.7% and 92%, respectively. The IC50 with human CCK-2 receptor [5] was found to be 37 nM; with human CCK-2 receptor [7], 25.1 nM; with human CCK-2 receptor [9], 3.1 nM. For the same molecule, the “ratio IC50 GamideE7A/IC50 Gamide” value in the test with human CCK-2 receptor [6] was 2.4; with human CCK-2 receptor [8], 1.4.

As for LEEEEE [hexapeptide LE5], in [1], the “ED50 (nM), proliferation of IMGE cells” value came out at 0.9 nM.

With EEEEEAY [heptapeptide E5AY], the “ED50 (nM), proliferation of IMGE cells” value in [1] stood at 1.1 nM.

LEEEEEA [heptapeptide LE5A]: the “ED50 (nM), proliferation of IMGE cells” value in [1] was 2.4 nM.

B3: GamideE8,9A (peptide)
peptide: [pGlu]GPWLEEAAEAYGWMDF-NH2
modifications: ends and bridges not checked
notes: Gamide mutant with Glu8 and Glu9 replaced by Ala; Synthesised by Auspep
Consider B3, for which the results for the “% Maximum Binding” value with human CCK-2 receptor [3] and with human CCK-2 receptor [4] were 97.8% and 98.4%, respectively. The IC50 with human CCK-2 receptor [5] was determined as 112 nM; with human CCK-2 receptor [7] it was 58.2 nM; with human CCK-2 receptor [9], 2.8 nM. Also, the “ratio IC50 GamideE8,9A/IC50 Gamide” value came to 2.2 with human CCK-2 receptor [6] and 4.1 with human CCK-2 receptor [8].

In the case of LEEEEEAYG [nonapeptide LE5AYG], in test [1], the “ED50 (nM), proliferation of IMGE cells” value amounted to 1 nM.
